Values quoted from earlier work in publication PMC5021969.

Molecular target: CXCL1 (Mus musculus) (UniProt P12850)

CXCL1 (from UniProt P12850)
Kd: 10 µM
